From patent US6399570B1, “Antimicrobial/endotoxin neutralizing polypeptide” (priority 1999, dated 2002) come the findings set out here.

One experiment concerns E. coli 0111. Nature of the experiment: Time course of E. coli growth in the presence of LF polypeptides. Particulars: 50 μM, seven hour time course, OD 600 nm. It counts as cell-based. The protocol:
To investigate whether regions of the molecule involved in GAG binding activity of the 6 kDa LF polypeptide (generated from pepsin digestion) are also involved in the antimicrobial activity of the 6 kDa polypeptide of the present invention, polypeptides of various lengths corresponding to the N-terminal amino acid sequence of LF were tested for the ability to inhibit the growth of E. coli 0111. Overnight cultures were grown over a seven hour time course in the presence of 50 μM of either LF, a 33-mer corresponding to amino acids 1-33 of LF, a 26-mer corresponding to […] of LF, a 27-mer corresponding to amino acids 1-27 of LF. […] This is consistent with LF and the 33-mer inhibiting bacterial growth via different mechanisms. […] The failure of the 26-mer and the 27-mer to inhibit culture growth emphasizes the importance of retaining both clusters of basic residues, at the termini of the 33-mer, for the antimicrobial functionality of polypeptides derived from the N-terminal LF sequence.
Time course of E. coli growth in the presence of LF polypeptides. E. coli cells, clinical isolate strain 0111, were obtained from ATCC. […] Culture growth was monitored spectrophotometrically by measuring optical density at 600 nm at each indicated time point.

In experiment [1] the test system is lipid A from E. coli 0113. Nature of the experiment: LAL assay, neutralization of lipid A endotoxin activity (FIG. 6). The class given is biochemical. As to conditions: lipid A 30 ng/ml. The protocol:
The lipid A region of the LPS molecule is primarily responsible for the inflammatory and toxic effects of LPS. When LPS is released from the microbe, the lipid A portion may become more accessible. The following assays were performed to determine the potential of various amino-terminal LF polypeptides to neutralize the endotoxic activity of the lipid A portion of LPS. LF, the 6 kDa fragment of LF, LF-33, LF-27, and polymyxin B were each tested for the ability to neutralize the endotoxin activity of lipid A from E. coli 0113 (30 ng/ml), using a LAL assay. […] The endotoxin activity of the smaller fragments of LF indicate that endotoxin-neutralizing activity of these small polypeptides is masked when in the context of the intact LF molecule.

B1: LF: 80 kDa iron-binding glycoprotein, purified from human colostrum (protein, UniProt P02788 20-710, looked up)
Lactotransferrin: GRRRSVQWCAVSQPEATKCFQWQRNMRKVRGPPVSCIKRDSPIQCIQAIAENRADAVTLDGGFIYEAGLAPYKLRPVAAEVYGTERQPRTHYYAVAVVKKGGSFQLNELQGLKSCHTGLRRTAGWNVPIGTLRPFLNWTGPPEPIEAAVARFFSASCVPGADKGQFPNLCRLCAGTGENKCAFSSQEPYFSYSGAFKCLRDGAGDVAFIRESTVFEDLSDEAERDEYELLCPDNTRKPVDKFKDCHLARVPSHAVVARSVNGKEDAIWNLLRQAQEKFGKDKSPKFQLFGSPSGQKDLLFKDSAIGFSRVPPRIDSGLYLGSGYFTAIQNLRKSEEEVAARRARVVWCAVGEQELRKCNQWSGLSEGSVTCSSASTTEDCIALVLKGEADAMSLDGGYVYTAGKCGLVPVLAENYKSQQSSDPDPNCVDRPVEGYLAVAVVRRSDTSLTWNSVKGKKSCHTAVDRTAGWNIPMGLLFNQTGSCKFDEYFSQSCAPGSDPRSNLCALCIGDEQGENKCVPNSNERYYGYTGAFRCLAENAGDVAFVKDVTVLQNTDGNNNEAWAKDLKLADFALLCLDGKRKPVTEARSCHLAMAPNHAVVSRMDKVERLKQVLLHQQAKFGRNGSDCPDKFCLFQSETKNLLFNDNTECLARLHGKTTYEKYLGPQYVAGITNLKKCSTSPLLEACEFLRK
For the molecule B1, the “growth of E. coli 0111 cultures” value in the experiment on E. coli 0111 was “transient growth suppressing effect”. In addition, the “lipid A neutralizing activity” value in experiment [1] is “no appreciable lipid A neutralizing activity”.
